Literature values in publication PMC9200754.

Key:
p65 (Homo sapiens) = p65 (Homo sapiens) (UniProt Q04206); conditions: cited from earlier work
p50 (Homo sapiens) = p50 (Homo sapiens) (UniProt P19838); conditions: cited from earlier work

Chain of UniProt Q04206 (Q04206 whole entry): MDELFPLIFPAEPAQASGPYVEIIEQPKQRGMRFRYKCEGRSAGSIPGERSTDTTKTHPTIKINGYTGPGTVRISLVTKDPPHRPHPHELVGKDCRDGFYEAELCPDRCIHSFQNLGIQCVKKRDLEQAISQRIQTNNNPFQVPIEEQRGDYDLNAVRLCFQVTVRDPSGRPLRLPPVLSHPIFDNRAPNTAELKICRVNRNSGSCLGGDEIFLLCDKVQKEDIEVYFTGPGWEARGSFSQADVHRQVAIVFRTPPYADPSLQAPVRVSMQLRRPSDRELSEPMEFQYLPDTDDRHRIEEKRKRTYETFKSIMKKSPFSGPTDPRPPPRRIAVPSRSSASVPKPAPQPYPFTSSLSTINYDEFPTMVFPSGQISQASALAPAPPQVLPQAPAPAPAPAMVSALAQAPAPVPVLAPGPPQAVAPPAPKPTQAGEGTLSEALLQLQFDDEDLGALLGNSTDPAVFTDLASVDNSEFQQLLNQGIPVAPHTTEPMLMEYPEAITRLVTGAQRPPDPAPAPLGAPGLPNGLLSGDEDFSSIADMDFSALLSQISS

Substance: p50 (from UniProt P19838)
- Kd (p65 (Homo sapiens)): 10 nM
- Kd (p50 (Homo sapiens)): 30 nM
